# B1: recombinant disulfide HMGB1 protein (natural protein)
# chain: MGKGDPKKPRGKMSSYAFFVQTCREEHKKKHPDASVNFSEFSKKCSERWKTMSAKEKGKFEDMAKADKARYEREMKTYIPPKGETKKKFKDPNAPKRPPSAFFLFCSEYRPKIKGEHPGLSIGDVAKKLGEMWNNTAADDKQPYEKKAAKLKEKYEKDIAAYRAKGKPDAAKKGVVKAEKSKKKKEEEEDEEDEEDEEEEEDEEDEDEEEDDDDE
# modifications: disulfide bond between cysteines 23 and 45; reduced thiol on cysteine 106
# notes: high mobility group box-1 protein; also called high mobility group box-1 protein; source: recombinant, provided by Kevin Tracey (The Feinstein Institute for Medical Research)
# Target: recombinant human TLR4 protein (ectodomain, Glu24-Lys631) (human) (UniProt O00206)
# Assay: SPR; Biacore T200; TLR4 immobilised on a CM5 chip by amine coupling; HMGB1 or synthetic PSMs in 10 mM acetate buffer (pH 5.2) run over at gradient concentrations; 25°C, 30 µL/min; apparent KD
# Settings: not given
# Sequence of recombinant human TLR4 protein (ectodomain, Glu24-Lys631) (human) (O00206 24-631): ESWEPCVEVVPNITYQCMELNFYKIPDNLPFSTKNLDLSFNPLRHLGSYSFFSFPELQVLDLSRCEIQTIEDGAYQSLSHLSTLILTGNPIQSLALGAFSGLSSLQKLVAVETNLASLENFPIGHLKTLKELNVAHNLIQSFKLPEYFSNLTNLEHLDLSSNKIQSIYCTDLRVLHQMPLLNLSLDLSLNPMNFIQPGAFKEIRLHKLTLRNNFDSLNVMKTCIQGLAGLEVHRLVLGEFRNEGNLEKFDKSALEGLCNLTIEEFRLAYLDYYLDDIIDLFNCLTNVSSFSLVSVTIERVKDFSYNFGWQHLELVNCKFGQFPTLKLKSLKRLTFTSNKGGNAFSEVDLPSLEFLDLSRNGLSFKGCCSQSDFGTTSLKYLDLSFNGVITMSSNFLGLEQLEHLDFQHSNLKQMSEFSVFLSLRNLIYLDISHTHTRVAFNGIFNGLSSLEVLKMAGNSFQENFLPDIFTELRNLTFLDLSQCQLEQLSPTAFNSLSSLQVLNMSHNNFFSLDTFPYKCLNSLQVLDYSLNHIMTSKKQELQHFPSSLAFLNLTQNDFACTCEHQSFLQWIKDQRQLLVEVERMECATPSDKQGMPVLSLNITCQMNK
row,Molecule,Kd [µM]
1,Staphylococcus aureus phenol-soluble modulin α1 (peptide),3.81
2,Staphylococcus aureus phenol-soluble modulin β2 (peptide),7.78
3,Staphylococcus aureus phenol-soluble modulin β1 (peptide),3.79
4,Staphylococcus aureus phenol-soluble modulin α3 (peptide),3
5,Staphylococcus aureus phenol-soluble modulin α2 (peptide),3.24

# Target: T1, recombinant human TLR4 protein (ectodomain, Glu24-Lys631) (human, UniProt O00206 24-631)
# T1 construct: human toll-like receptor 4, Glu24-Lys631, the ectodomain with no transmembrane domain; followed by a C-terminal Ser and 10-His tag; also called hTLR4; toll-like receptor 4; source: bought: R&D Systems (Catalog Number 1478-TR); not shown: His10 (after a Ser), C-terminal, kept
# Assay: as above
# Settings: both partners purified
# T1 sequence (O00206 24-631): as above
row,Molecule,Kd [µM]
1,B1,9.2
